Test results taken from publication PMC10521137.

Target: Rad53 FHA1 domain, 1-165 (UniProt P22216)
Experiment: biotin-peptide streptavidin pulldown, Coomassie stain
Conditions: reference: unphosphorylated peptide (peptide 1); sites T402

- binding against the reference: gained
Substance: Pol1 (catalytic subunit of DNA polymerase alpha) 393-412 (from UniProt P13382) pT402 peptide (peptide 2)
